Common to all, as to assay: cross-linking
For assay [1], the target named is VcINDY Q86C S95C (dimer interface cysteine mutant in the cysteine-free background) (Vibrio cholerae) (UniProt Q9KNE0).
In assay [2] the target is VcINDY K316C (dimer interface cysteine mutant in the cysteine-free background) (Vibrio cholerae) (UniProt Q9KNE0).
Assay [3] has as its target VcINDY N90C (dimer interface cysteine mutant in the cysteine-free background) (Vibrio cholerae) (UniProt Q9KNE0).
In assay [4] the target is VcINDY V68C S304C (dimer interface cysteine mutant in the cysteine-free background) (Vibrio cholerae) (UniProt Q9KNE0).

As usually defined, the stoichiometry N is the number of molecules, sites or subunits per partner or assembly.

For the substance “VcINDY Q86C S95C (dimer interface cysteine mutant in the cysteine-free background) (from UniProt Q9KNE0 14-462) (natural protein)”, the stoichiometry N in assay [1] came out at 2.

Substance “VcINDY K316C (dimer interface cysteine mutant in the cysteine-free background) (from UniProt Q9KNE0 14-462) (natural protein)” yielded a stoichiometry N in assay [2] of 2.

On to “VcINDY N90C (dimer interface cysteine mutant in the cysteine-free background) (from UniProt Q9KNE0 14-462) (natural protein)”, for which the stoichiometry N in assay [3] turned out to be 2. On to “VcINDY V68C S304C (dimer interface cysteine mutant in the cysteine-free background) (from UniProt Q9KNE0 14-462) (natural protein)”, for which the stoichiometry N in assay [4] is 2.
